{"source": "patent US20150023971A1", "key": {"[1]": {"target": "T1, …", "T1 sequence (peptide)": "RSSDFAKNFVQ", "experiment": "SPOT length analysis, dot 19, anti-histidine detection"}, "SDFAK": {"target": "T2, SDFAK", "T2 sequence (peptide)": "SDFAK", "experiment": "SPOT length analysis, dot 72, anti-histidine detection"}, "[2]": {"target": "T3, …", "T3 sequence (peptide)": "IFRSSDFAKNFVQ", "experiment": "SPOT length analysis, dot 8, anti-histidine detection"}, "[3]": {"target": "T4, …", "T4 sequence (peptide)": "SSDFAKNFVQT", "experiment": "SPOT length analysis, dot 20, anti-histidine detection"}, "SSDF": {"target": "T5, SSDF", "T5 sequence (peptide)": "SSDF", "experiment": "SPOT length analysis, dot 83, anti-histidine detection"}, "AKNFV": {"target": "T6, AKNFV", "T6 sequence (peptide)": "AKNFV", "experiment": "SPOT length analysis, dot 75, HRP-S-protein detection"}, "RIFRSSD": {"target": "T7, RIFRSSD", "T7 sequence (peptide)": "RIFRSSD", "experiment": "SPOT length analysis, dot 46, anti-histidine detection"}, "IFRS [4]": {"target": "T8, IFRS", "T8 sequence (peptide)": "IFRS", "experiment": "SPOT length analysis, dot 80, HRP-S-protein detection"}, "RSSDFAKN": {"target": "T9, RSSDFAKN", "T9 sequence (peptide)": "RSSDFAKN", "experiment": "SPOT length analysis, dot 40, anti-histidine detection"}, "[5]": {"target": "T10, …", "T10 sequence (peptide)": "DFAKNFVQT", "experiment": "SPOT length analysis, dot 35, anti-histidine detection"}, "FAKNFVQT": {"target": "T11, FAKNFVQT", "T11 sequence (peptide)": "FAKNFVQT", "experiment": "SPOT length analysis, dot 44, anti-histidine detection"}, "KNFVQT": {"target": "T12, KNFVQT", "T12 sequence (peptide)": "KNFVQT", "experiment": "SPOT length analysis, dot 65, anti-histidine detection"}, "[6]": {"target": "T13, …", "T13 sequence (peptide)": "FRSSDFAKNFVQT", "experiment": "SPOT length analysis, dot 9, HRP-S-protein detection"}, "[7]": {"target": "T14, …", "T14 sequence (peptide)": "FRSSDFAKN", "experiment": "SPOT length analysis, dot 31, anti-histidine detection"}, "IFRS [8]": {"target": "T8, IFRS", "experiment": "SPOT length analysis, dot 80, anti-histidine detection"}, "RIFRS [9]": {"target": "T15, RIFRS", "T15 sequence (peptide)": "RIFRS", "experiment": "SPOT length analysis, dot 67, HRP-S-protein detection"}, "[10]": {"target": "T16, …", "T16 sequence (peptide)": "IFRSSDFAKNF", "experiment": "SPOT length analysis, dot 17, HRP-S-protein detection"}, "KNFVQ": {"target": "T17, KNFVQ", "T17 sequence (peptide)": "KNFVQ", "experiment": "SPOT length analysis, dot 76, anti-histidine detection"}, "VQTD": {"target": "T18, VQTD", "T18 sequence (peptide)": "VQTD", "experiment": "SPOT length analysis, dot 91, anti-histidine detection"}, "[11]": {"target": "T19, …", "T19 sequence (peptide)": "IFRSSDFAKN", "experiment": "SPOT length analysis, dot 23, HRP-S-protein detection"}, "FRSSDFAK": {"target": "T20, FRSSDFAK", "T20 sequence (peptide)": "FRSSDFAK", "experiment": "SPOT length analysis, dot 39, anti-histidine detection"}, "AKNF": {"target": "T21, AKNF", "T21 sequence (peptide)": "AKNF", "experiment": "SPOT length analysis, dot 87, anti-histidine detection"}, "[12]": {"target": "T22, …", "T22 sequence (peptide)": "RIFRSSDFA", "experiment": "SPOT length analysis, dot 29, anti-histidine detection"}, "[13]": {"target": "T23, …", "T23 sequence (peptide)": "RSSDFAKNFVQTD", "experiment": "SPOT length analysis, dot 10, HRP-S-protein detection"}, "KNFVQTD": {"target": "T24, KNFVQTD", "T24 sequence (peptide)": "KNFVQTD", "experiment": "SPOT length analysis, dot 55, anti-histidine detection"}, "[14]": {"target": "T25, …", "T25 sequence (peptide)": "IFRSSDFAKNFV", "experiment": "SPOT length analysis, dot 12, HRP-S-protein detection"}, "RSSD": {"target": "T26, RSSD", "T26 sequence (peptide)": "RSSD", "experiment": "SPOT length analysis, dot 82, HRP-S-protein detection"}, "[15]": {"target": "T27, …", "T27 sequence (peptide)": "RIFRSSDFAKNFVQ", "experiment": "SPOT length analysis, dot 4, anti-histidine detection"}, "IFRSSDF [16]": {"target": "T28, IFRSSDF", "T28 sequence (peptide)": "IFRSSDF", "experiment": "SPOT length analysis, dot 47, anti-histidine detection"}, "IFRSSDF [17]": {"target": "T28, IFRSSDF", "experiment": "SPOT length analysis, dot 47, HRP-S-protein detection"}, "SSDFAKNF": {"target": "T29, SSDFAKNF", "T29 sequence (peptide)": "SSDFAKNF", "experiment": "SPOT length analysis, dot 41, HRP-S-protein detection"}, "NFVQ": {"target": "T30, NFVQ", "T30 sequence (peptide)": "NFVQ", "experiment": "SPOT length analysis, dot 89, anti-histidine detection"}, "KNFV": {"target": "T31, KNFV", "T31 sequence (peptide)": "KNFV", "experiment": "SPOT length analysis, dot 88, anti-histidine detection"}, "RIFRSS [18]": {"target": "T32, RIFRSS", "T32 sequence (peptide)": "RIFRSS", "experiment": "SPOT length analysis, dot 56, anti-histidine detection"}, "NFVQTD": {"target": "T33, NFVQTD", "T33 sequence (peptide)": "NFVQTD", "experiment": "SPOT length analysis, dot 66, HRP-S-protein detection"}, "[19]": {"target": "T34, …", "T34 sequence (peptide)": "FRSSDFAKNFVQTD", "experiment": "SPOT length analysis, dot 6, anti-histidine detection"}, "[20]": {"target": "T35, …", "T35 sequence (peptide)": "RSSDFAKNFVQT", "experiment": "SPOT length analysis, dot 14, HRP-S-protein detection"}, "[21]": {"target": "T36, …", "T36 sequence (peptide)": "SSDFAKNFVQ", "experiment": "SPOT length analysis, dot 26, HRP-S-protein detection"}, "FRSSDFA [22]": {"target": "T37, FRSSDFA", "T37 sequence (peptide)": "FRSSDFA", "experiment": "SPOT length analysis, dot 48, HRP-S-protein detection"}, "FRSSDFA [23]": {"target": "T37, FRSSDFA", "experiment": "SPOT length analysis, dot 48, anti-histidine detection"}, "[24]": {"target": "T38, …", "T38 sequence (peptide)": "DFAKNFVQTD", "experiment": "SPOT length analysis, dot 28, HRP-S-protein detection"}, "[25]": {"target": "T23, …", "experiment": "SPOT length analysis, dot 10, anti-histidine detection"}, "RIFRS [26]": {"target": "T15, RIFRS", "experiment": "SPOT length analysis, dot 67, anti-histidine detection"}, "AKNFVQTD": {"target": "T39, AKNFVQTD", "T39 sequence (peptide)": "AKNFVQTD", "experiment": "SPOT length analysis, dot 45, HRP-S-protein detection"}, "SDFAKN": {"target": "T40, SDFAKN", "T40 sequence (peptide)": "SDFAKN", "experiment": "SPOT length analysis, dot 61, anti-histidine detection"}, "SSDFAKN": {"target": "T41, SSDFAKN", "T41 sequence (peptide)": "SSDFAKN", "experiment": "SPOT length analysis, dot 50, HRP-S-protein detection"}, "[27]": {"target": "T42, …", "T42 sequence (peptide)": "FRSSDFAKNFVQ", "experiment": "SPOT length analysis, dot 13, anti-histidine detection"}, "RIFRSS [28]": {"target": "T32, RIFRSS", "experiment": "SPOT length analysis, dot 56, HRP-S-protein detection"}, "[29]": {"target": "T43, sortilin peptide … on SPOT membrane", "T43 sequence (peptide, C-terminus anchored to the cellulose membrane through a beta-alanine linker)": "FAKNFVQTD", "experiment": "SPOT length analysis, dot 36, HRP-S-protein detection"}}}
{"binder": "recombinant his-S-tagged pro-domain of human BDNF (residues Ala1-Arg110), from pET-30 Xa/LIC, E. coli (protein, not shown: small tags and cut ends) APMKEANIRGQGGLAYPGVRTHGTLESVNGPKAGSGLTSLADTFEHVIEELLDEDQKVRPNEENNKDADLYTSRVMLSSQVPLEPPLLFLLEEYKNYLDAANMSMRVRR", "values": [{"measurement": "BLU His", "setting": "[1]", "value": 26000, "unit": "BLU"}, {"measurement": "BLU His", "setting": "SDFAK", "value": 15900, "unit": "BLU"}, {"measurement": "BLU His", "setting": "[2]", "value": 41600, "unit": "BLU"}, {"measurement": "BLU His", "setting": "[3]", "value": 16700, "unit": "BLU"}, {"measurement": "BLU His", "setting": "SSDF", "value": 14100, "unit": "BLU"}, {"measurement": "BLU Sprotein", "setting": "AKNFV", "value": 15900, "unit": "BLU"}, {"measurement": "BLU His", "setting": "RIFRSSD", "value": 20200, "unit": "BLU"}, {"measurement": "BLU Sprotein", "setting": "IFRS [4]", "value": 111000, "unit": "BLU"}, {"measurement": "BLU His", "setting": "RSSDFAKN", "value": 18700, "unit": "BLU"}, {"measurement": "BLU His", "setting": "[5]", "value": 19100, "unit": "BLU"}, {"measurement": "BLU His", "setting": "FAKNFVQT", "value": 80400, "unit": "BLU"}, {"measurement": "BLU His", "setting": "KNFVQT", "value": 15400, "unit": "BLU"}, {"measurement": "BLU Sprotein", "setting": "[6]", "value": 223000, "unit": "BLU"}, {"measurement": "BLU His", "setting": "[7]", "value": 20400, "unit": "BLU"}, {"measurement": "BLU His", "setting": "IFRS [8]", "value": 51100, "unit": "BLU"}, {"measurement": "BLU Sprotein", "setting": "RIFRS [9]", "value": 137000, "unit": "BLU"}, {"measurement": "BLU Sprotein", "setting": "[10]", "value": 127000, "unit": "BLU"}, {"measurement": "BLU His", "setting": "KNFVQ", "value": 18200, "unit": "BLU"}, {"measurement": "BLU His", "setting": "VQTD", "value": 15100, "unit": "BLU"}, {"measurement": "BLU Sprotein", "setting": "[11]", "value": 29800, "unit": "BLU"}, {"measurement": "BLU His", "setting": "FRSSDFAK", "value": 19000, "unit": "BLU"}, {"measurement": "BLU His", "setting": "AKNF", "value": 14600, "unit": "BLU"}, {"measurement": "BLU His", "setting": "[12]", "value": 43400, "unit": "BLU"}, {"measurement": "BLU Sprotein", "setting": "[13]", "value": 20700, "unit": "BLU"}, {"measurement": "BLU His", "setting": "KNFVQTD", "value": 18300, "unit": "BLU"}, {"measurement": "BLU Sprotein", "setting": "[14]", "value": 199000, "unit": "BLU"}, {"measurement": "BLU Sprotein", "setting": "RSSD", "value": 14900, "unit": "BLU"}, {"measurement": "BLU His", "setting": "[15]", "value": 141000, "unit": "BLU"}, {"measurement": "BLU His", "setting": "IFRSSDF [16]", "value": 24400, "unit": "BLU"}, {"measurement": "BLU Sprotein", "setting": "IFRSSDF [17]", "value": 27800, "unit": "BLU"}, {"measurement": "BLU Sprotein", "setting": "SSDFAKNF", "value": 16300, "unit": "BLU"}, {"measurement": "BLU His", "setting": "NFVQ", "value": 14700, "unit": "BLU"}, {"measurement": "BLU His", "setting": "KNFV", "value": 14900, "unit": "BLU"}, {"measurement": "BLU His", "setting": "RIFRSS [18]", "value": 122000, "unit": "BLU"}, {"measurement": "BLU Sprotein", "setting": "NFVQTD", "value": 14500, "unit": "BLU"}, {"measurement": "BLU His", "setting": "[19]", "value": 18800, "unit": "BLU"}, {"measurement": "BLU Sprotein", "setting": "[20]", "value": 24600, "unit": "BLU"}, {"measurement": "BLU Sprotein", "setting": "[21]", "value": 18500, "unit": "BLU"}, {"measurement": "BLU Sprotein", "setting": "FRSSDFA [22]", "value": 17200, "unit": "BLU"}, {"measurement": "BLU His", "setting": "FRSSDFA [23]", "value": 16600, "unit": "BLU"}, {"measurement": "BLU Sprotein", "setting": "[24]", "value": 19000, "unit": "BLU"}, {"measurement": "BLU His", "setting": "[25]", "value": 19800, "unit": "BLU"}, {"measurement": "BLU His", "setting": "RIFRS [26]", "value": 115000, "unit": "BLU"}, {"measurement": "BLU Sprotein", "setting": "AKNFVQTD", "value": 15300, "unit": "BLU"}, {"measurement": "BLU His", "setting": "SDFAKN", "value": 15100, "unit": "BLU"}, {"measurement": "BLU Sprotein", "setting": "SSDFAKN", "value": 15900, "unit": "BLU"}, {"measurement": "BLU His", "setting": "[27]", "value": 25800, "unit": "BLU"}, {"measurement": "BLU Sprotein", "setting": "RIFRSS [28]", "value": 94400, "unit": "BLU"}, {"measurement": "BLU Sprotein", "setting": "[29]", "value": 18800, "unit": "BLU"}]}
